The results in this text go back to patent US20040014939.

The data set relates to T1, synthetic substrate Mcc-Pro-Leu-Gly-Pro-D-Lys(DNP)-OH.
T1 sequence: PLGPK

As to “luciferase as a fusion protein with 6×His tag”, the “enzyme activity (fluorescence intensity, excitation 345±10 nm, emission 425±10 nm, 37° C. for 1 h)” value is given as “the enzyme activity was not detected in the water-soluble fraction in the case of a control in which luciferase gene was introduced into the similar expression vector”.
